Usually EC50 stands for the midpoint of the concentration-response curve. As a reminder, the Kd is the free concentration of one partner at which half of the binding sites on the other are occupied at equilibrium, for simple one-to-one binding. Low values mean a tighter complex, high ones a looser complex. By koff is commonly meant a measure of how fast the partners let go of each other. A word on the kon: it is a measure of how fast the partners come together.

To fix the notation:
B1: anti-TIGIT antibody VH2+VL4 (antibody, human IgG1, kappa)
heavy: not shown
light: DIVMTQSPDSLAVSLGERATINCSASSSVSYIHWYQQKPGQPPKLLIYRTSNLASGVPDRFSGSGSGTDFTLTISSLQAEDVAVYYCQQYHSNPWTFGGGTKLEIKRTVAAPSVFIFPPSDEQLKSGTASVVCLLNNFYPREAKVQWKVDNALQSGNSQESVTEQDSKDSTYSLSSTLTLSKADYEKHKVYACEVTHQGLSSPVTKSFNRGEC
notes: Biotin-labeled in the cynomolgus TIGIT flow cytometry assay; also called HC1 + LC3
B2: VH4 + VL2 (antibody, human IgG1, kappa, V domains shown)
VH: EVQLVQSGAEVKKPGESLKISCKGSGYTFSRYWIEWVRQMPGKGLEWMGEIFPGSGGTNYNEKFKGQVTISADKSISTAYLQWSSLKASDTAMYYCARHLGALDYWGQGTLVTVSS
VL: DIQMTQSPSSLSASVGDRVTITCSASSSVSYIHWYQQKPGKAPKLLIYRTSNLASGVPSRFSGSGSGTDFTLTISSLQPEDFATYYCQQYHSNPWTFGGGTKLEIKR
notes: Humanized full-length IgG; also called HC3 + LC1
B3: VH3 + VL4 (antibody, human IgG1, kappa, V domains shown)
VH: QVQLVQSGAEVKKPGASVKVSCKASGYTFSRYWIEWVRQAPGQGLEWMGEIFPGSGGTNYNEKFKGRVTMTRDTSTSTVYMELSSLRSEDTAVYYCARHLGALDYWGQGTLVTVSS
VL: DIVMTQSPDSLAVSLGERATINCSASSSVSYIHWYQQKPGQPPKLLIYRTSNLASGVPDRFSGSGSGTDFTLTISSLQAEDVAVYYCQQYHSNPWTFGGGTKLEIKR
notes: Humanized full-length IgG; also called HC2 + LC3
B4: VH3 + VL3 (antibody, human IgG1, kappa, V domains shown)
VH: B3 VH
VL: EIVLTQSPGTLSLSPGERATLSCSASSSVSYIHWYQQKPGQAPRLLIYRTSNLASGIPDRFSGSGSGTDFTLTISRLEPEDFAVYYCQQYHSNPWTFGGGTKLEIKR
notes: Humanized full-length IgG; also called HC2 + LC2
B5: Chimeric VH+VL (Parental mouse VH+VL combined with human Fc) (antibody, human IgG1, kappa, V domains shown)
VH: QVQLQQSGAELMKPGASVKISCKATGYTFSRYWIEWVKQRPGHGLEWIGEIFPGSGGTNYNEKFKGKATFTADTSSNTAYMQLTSLTSEDSAVYYCARHLGALDYWGQGTSVTVSS
VL: QIVLTQSPAIMSASPGEKVTISCSASSSVSYIHWYQQKAGSSPKPWIYRTSNLASGVPARLSGSGSGTSYFLTISSMEAEDAATYYCQQYHSNPWTFGGGTKLEIKR
notes: also called chimeric antibody

The target in the first test is T1, full-length cynomolgus TIGIT on 293T cells (cynomolgus, UniProt A0A7N9I9V4 89-312).
T1 construct: whole, on cells; also called cynomolgus-expressing 293T cells
T1 sequence (A0A7N9I9V4 entry or part of it): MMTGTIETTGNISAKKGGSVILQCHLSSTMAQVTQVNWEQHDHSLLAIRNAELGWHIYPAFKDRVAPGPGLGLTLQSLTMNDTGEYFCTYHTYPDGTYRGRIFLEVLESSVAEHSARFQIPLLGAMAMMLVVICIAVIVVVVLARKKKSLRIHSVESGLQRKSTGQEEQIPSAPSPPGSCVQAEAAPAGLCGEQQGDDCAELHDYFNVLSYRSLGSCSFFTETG
In words: flow cytometry on 293T cells transfected with cynomolgus TIGIT, biotin-labeled antibody detected with Brilliant Violet 421 streptavidin, readout % of bound cells. Here is the method:
A DNA encoding full-length cynomolgus TIGIT (NCBI Accession No: XP_015300911.1) was cloned into pcDNA3.4 vector (Invitrogen #A14697) and transfected into 293T cells (Cell Bank, Chinese Academy of Sciences, #SCSP-502) by using Polyethylenimine Max reagent (Polysciences #24765-2). 48 hours post-transfection, cynomolgus-expressing 293T cells were incubated with different concentrations of biotin-labeled (Thermo #21338) anti-TIGIT antibody VH2+VL4 at 4° C. for 20 minutes. Then cells were washed once by FACS buffer (PBS with 2% FBS) and incubated with Brilliant Violet 421 Streptavidin (Biolegend #405225) at 4° C. for 30 minutes. After washed once by FACS buffer, cells were resuspended in 200 μL FACS buffer. The cells after staining were analyzed by BD FACSCelesta Flow Cytometer.
A general note: A flow cytometer gives signals particle by particle.
With B1, the half-maximal effective concentration (EC50) was 0.02 nM.

The next test addresses T2, full-length human TIGIT on Jurkat/TIGIT cells (human, UniProt Q495A1 22-244).
T2 construct: whole, on cells; also called Human TIGIT-expressing Jurkat cells; TIGIT expressed on cell surface
T2 sequence (looked up): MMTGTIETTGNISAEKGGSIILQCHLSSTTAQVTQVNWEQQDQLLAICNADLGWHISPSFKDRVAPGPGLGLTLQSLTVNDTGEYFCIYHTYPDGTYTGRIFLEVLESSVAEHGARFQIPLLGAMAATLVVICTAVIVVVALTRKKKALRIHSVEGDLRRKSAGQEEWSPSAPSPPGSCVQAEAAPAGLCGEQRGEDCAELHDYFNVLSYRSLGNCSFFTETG
In words: flow cytometry on Jurkat/TIGIT cells, Alexa Fluor 594 goat anti-human IgG secondary antibody, readout % of bound cells. On the procedure:
Jurkat/TIGIT cells were incubated with different concentrations of anti-TIGIT antibody VH2+VL4 or human IgG1 isotype control at 4° C. for 30 minutes. Then cells were washed once by FACS buffer (PBS with 2% FBS) and incubated with Alexa Fluor 594 AffiniPure Goat Anti-human IgG secondary antibody (Jackson ImmunoResearch #109-585-088) at 4° C. for 30 minutes. After washed once by FACS buffer, cells were resuspended in 200 μL FACS buffer. The cells after staining were analyzed by BD LSRFortessa Flow Cytometer.
Consider B1, for which the EC50 worked out at 1.13 nM.

The next test deals with T3, human TIGIT/mIgG2aFc recombinant protein (human, UniProt Q495A1 22-141).
T3 construct: range 22-141; In-house production; also called TIGIT/mIgG2aFc protein; human TIGIT/mIgG2aFc protein; not shown: mouse IgG2a Fc
T3 sequence (looked up): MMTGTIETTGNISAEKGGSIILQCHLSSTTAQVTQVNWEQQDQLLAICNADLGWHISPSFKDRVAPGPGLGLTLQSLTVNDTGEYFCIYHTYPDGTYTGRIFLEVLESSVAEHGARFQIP
In words: ELISA, plate coated with human TIGIT/mIgG2aFc, anti-human IgG-HRP detection. On the procedure:
MaxiSorp 96-well plates (NUNC #449824) were coated with 2 μg/mL human TIGIT/mIgG2aFc protein (in-house production, the method is well known in the art) in 1× PBS (50 μL/well). Plates were incubated at 4° C. overnight. Coating solution was removed and plates were washed once with 200 μL/well PBST (1× PBS containing 0.05% tween-20). Then 200 μL/well blocking buffer (1× PBS with 0.05% tween-20, 3% BSA) was added and incubated at room temperature for 1 hour. Blocking buffer was removed and plates were washed three times with 200 μL/well PBST. Antibody VH2+VL4 (produced in Example 2) and human IgG1 isotype control (hIgG1, Sigma #I5154-1MG) was diluted by 1× PBS and added to plates (50 μL/well). Plates were incubated at room temperature for 2 hours. Antibodies in the wells were removed and plates were washed three times with 200 μL/well PBST. Goat anti-human IgG(H&L)-HRP secondary antibody (Jackson Immuno Research #109-035-088) was diluted 1:5000 in 1× PBS and added to each well (50 μL/well). Plates were incubated at room temperature for 1 hour. Secondary antibody was removed and plates were washed five times with 200 μL/well PBST. 50 μL/well TMB (eBioscience #85-00-4201-56) was added and plates were incubated at room temperature for several minutes. Then 50 μL/well 2N H₂SO₄ was added to stop the reaction. Optical density was measured at 450 nm.
(An ELISA detects its analyte on a solid surface through an enzyme-linked reagent.)
Regarding B1, the half-maximal effective concentration (EC50) was 0.47 nM.

Another test addresses T4, TIGIT (SPR analyte) (human, UniProt Q495A1 22-141, limits assumed).
T4 construct: the text says only 'TIGIT was used as the analyte'; The construct is not described; also called human TIGIT
T4 sequence (looked up): T3 sequence (looked up)
In words: SPR (Biacore 8K), antibody captured through Fc, TIGIT as analyte. Here is the method: TIGIT was used as the analyte. The surface was regenerated before the injection of another antibody. The process was repeated until all antibodies are analyzed. The off-rates of antibodies were obtained from fitting the experimental data locally to 1:1 interaction model using the Biacore 8K evaluation software. The antibodies were ranked by their dissociation rate constants (off-rates, kd) (Table 1). Based on the ranking result, the top 4 clones were selected.
Background: SPR reads the build-up and loss of mass on a sensor chip optically.
In the case of B2, the Kd was 0.122 nM, the koff turned out to be 4.97e-05 s⁻¹ and the kon turned out to be 407000 M⁻¹ s⁻¹.

In turn, B1 registered a Kd of 0.101 nM, a koff of 4.47e-05 s⁻¹ and a kon of 444000 M⁻¹ s⁻¹.

The molecule B3 showed a Kd of 0.11 nM, an off-rate constant (koff) of 4.38e-05 s⁻¹ and a kon of 396000 M⁻¹ s⁻¹.

For B4, the dissociation constant Kd came out at 0.111 nM, the dissociation rate constant (koff) was determined as 3.25e-05 s⁻¹ and the kon came out at 294000 M⁻¹ s⁻¹.

In the case of B5, the affinity, expressed as Kd, was 0.179 nM; the koff came to 5.56e-05 s⁻¹; the association rate constant (kon) worked out at 310000 M⁻¹ s⁻¹.

Source of the values: US20240239887A1 (SUZHOU KANOVA BIOPHARMACEUTICAL, published 2024).
